Measurements from patent US20150368301A1.

Key:
[1] = molecular target: Phosphorylated Nox1 peptide (pNox1, KLKT*QKIYF); assay: ITC, phosphorylated versus unphosphorylated Nox1 peptide
[2] = molecular target: Phosphorylated Nox1 peptide (pNox1, KLKT*QKIYF); assay: ITC, pNox1 peptide injected into NoxA1 AD peptide, single site model, n=3, 25° C.; phosphorylated Nox1 peptide (pNox1, T429)
[3] = molecular target: Phosphorylated Nox1 peptide (pNox1, KLKT*QKIYF); assay: ITC, pNox1 peptide injected into NoxA1 AD peptide, single site model, n=3, 25° C.

fold increase of association against the unphosphorylated Nox1 peptide [1]: > 100 fold
Kd [2]: 1500 nM
stoichiometry [3]: 0.86
Substance: NoxA1 activation domain (AD) peptide (…)
